Patent US7125658B2, “Small protein that interacts with a ribonucleotide reductase subunit and uses thereof” (The Trustees of Columbia University in the City of New York, priority 1998, dated 2006)
Ends that are not written are not given here.

Columns and labels:
[1] = biological target: T1, GAD-RNR1 (Saccharomyces cerevisiae, UniProt P21524); assay: yeast two-hybrid assay against GAD-RNR1; assay type: cell-based; set-up: key to HIS3 reporter / ADE2 reporter: + signifies growth on histidine-less and adenine-less media; +/− signifies constructs unable to grow on adenine-less medium but able to give rise to white colonies on YPD medium
T1 construct: expressed in transfected cells; host or cells: S. cerevisiae two-hybrid strain PJ69-4A
T1 sequence (P21524 1-888): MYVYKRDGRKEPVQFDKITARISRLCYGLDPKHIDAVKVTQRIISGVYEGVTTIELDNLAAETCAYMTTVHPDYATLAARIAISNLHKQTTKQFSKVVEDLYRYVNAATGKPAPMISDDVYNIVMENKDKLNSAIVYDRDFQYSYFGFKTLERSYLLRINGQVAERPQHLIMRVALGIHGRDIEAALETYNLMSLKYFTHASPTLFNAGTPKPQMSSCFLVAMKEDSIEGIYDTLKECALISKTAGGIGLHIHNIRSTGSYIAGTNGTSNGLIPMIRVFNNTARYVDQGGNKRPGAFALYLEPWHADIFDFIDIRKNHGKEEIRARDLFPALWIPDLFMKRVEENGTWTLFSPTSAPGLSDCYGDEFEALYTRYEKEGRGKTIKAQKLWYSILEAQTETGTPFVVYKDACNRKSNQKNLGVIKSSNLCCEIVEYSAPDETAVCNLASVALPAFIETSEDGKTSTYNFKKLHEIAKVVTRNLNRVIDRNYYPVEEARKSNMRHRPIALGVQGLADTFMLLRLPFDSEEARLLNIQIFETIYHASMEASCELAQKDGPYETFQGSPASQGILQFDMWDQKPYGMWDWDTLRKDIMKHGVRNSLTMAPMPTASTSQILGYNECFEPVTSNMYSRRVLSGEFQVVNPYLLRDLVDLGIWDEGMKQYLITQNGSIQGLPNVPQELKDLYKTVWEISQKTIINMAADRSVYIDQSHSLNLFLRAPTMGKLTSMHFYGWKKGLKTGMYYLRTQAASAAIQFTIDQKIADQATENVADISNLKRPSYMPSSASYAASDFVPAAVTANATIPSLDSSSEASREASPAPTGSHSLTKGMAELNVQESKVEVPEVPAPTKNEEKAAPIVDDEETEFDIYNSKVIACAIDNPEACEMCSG
Description: (§1) The strains and plasmids for two-hybrid analysis were PJ69-4A, pGBD-C2, pGAD-C2 (James et al., 1996) and pACTII (CLONTECH® Inc.). The primer pair pB-SML1 5′ (SEQ ID NO: 11) and pGBD-SML1 3′ (SEQ ID NO: 13) (Table 4) was used to amplify the SML1 ORF. After digestion with BamHI and PstI, this PCR product was cloned into the BamHI-PstI sites of pGBD-C2 to construct plasmid pWJ728. Similarly, plasmid pWJ684 contains a BamHI fragment from the PCR product of the SML1 ORF generated using the primer pair pB-SML1 5′ and pB-SML1 3′ (SEQ ID NO: 12) (Table 4) and inserted at the BamHI site of pACTII. PCR fragments containing the RNR1 or the RNR2 ORF were generated by primer pairs RNR1-ORF 5′ (SEQ ID NO: 14) and RNR1 3′ (SEQ ID NO: 15) or RNR2-ORF 5′ (SEQ ID NO: 17) and RNR2 3′ (SEQ ID NO: 16) (Table 4). These fragments were cloned into the BamHI-PstI site of pGBD-C2 and pGAD-C2 to construct pWJ731 and pWJ745 or pWJ729 and pWJ746 respectively.
(§2) The GAL1-HIS3 reporter was assayed on SC-HIS-LEU-TRP medium plus 1-2 mM 3-aminotriazole. The GAL2-ADE2 reporter was assayed on SC-ADE-LEU-TRP medium.

[2] = biological target: T2, GAD (Saccharomyces cerevisiae, UniProt P04386); assay: yeast two-hybrid assay against GAD alone; assay type: cell-based
T2 construct: expressed in transfected cells; host or cells: S. cerevisiae two-hybrid strain PJ69-4A
T2 sequence (P04386 768-881 limits assumed): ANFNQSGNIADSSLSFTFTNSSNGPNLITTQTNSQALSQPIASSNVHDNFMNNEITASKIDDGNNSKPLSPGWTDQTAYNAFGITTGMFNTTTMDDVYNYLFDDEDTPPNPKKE
Description: as §1, §2

[3] = biological target: T3, GAD-SML1 (Saccharomyces cerevisiae, UniProt Q04964); assay: yeast two-hybrid assay against GAD-SML1; assay type: cell-based; set-up: key to HIS3 reporter / ADE2 reporter: + signifies growth on histidine-less and adenine-less media; +/− signifies constructs unable to grow on adenine-less medium but able to give rise to white colonies on YPD medium
T3 construct: expressed in transfected cells; host or cells: S. cerevisiae two-hybrid strain PJ69-4A
T3 sequence (Q04964 1-104): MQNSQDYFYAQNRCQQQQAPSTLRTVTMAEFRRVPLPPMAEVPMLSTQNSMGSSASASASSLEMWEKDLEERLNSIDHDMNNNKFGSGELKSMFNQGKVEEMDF
Description: as §1, §2

[4] = biological target: T4, Recombinant yeast Rnr1 protein (large subunit of ribonucleotide reductase) (yeast (Saccharomyces cerevisiae), UniProt P21524 1-888); assay: cell-based or functional assay
T4 sequence (looked up): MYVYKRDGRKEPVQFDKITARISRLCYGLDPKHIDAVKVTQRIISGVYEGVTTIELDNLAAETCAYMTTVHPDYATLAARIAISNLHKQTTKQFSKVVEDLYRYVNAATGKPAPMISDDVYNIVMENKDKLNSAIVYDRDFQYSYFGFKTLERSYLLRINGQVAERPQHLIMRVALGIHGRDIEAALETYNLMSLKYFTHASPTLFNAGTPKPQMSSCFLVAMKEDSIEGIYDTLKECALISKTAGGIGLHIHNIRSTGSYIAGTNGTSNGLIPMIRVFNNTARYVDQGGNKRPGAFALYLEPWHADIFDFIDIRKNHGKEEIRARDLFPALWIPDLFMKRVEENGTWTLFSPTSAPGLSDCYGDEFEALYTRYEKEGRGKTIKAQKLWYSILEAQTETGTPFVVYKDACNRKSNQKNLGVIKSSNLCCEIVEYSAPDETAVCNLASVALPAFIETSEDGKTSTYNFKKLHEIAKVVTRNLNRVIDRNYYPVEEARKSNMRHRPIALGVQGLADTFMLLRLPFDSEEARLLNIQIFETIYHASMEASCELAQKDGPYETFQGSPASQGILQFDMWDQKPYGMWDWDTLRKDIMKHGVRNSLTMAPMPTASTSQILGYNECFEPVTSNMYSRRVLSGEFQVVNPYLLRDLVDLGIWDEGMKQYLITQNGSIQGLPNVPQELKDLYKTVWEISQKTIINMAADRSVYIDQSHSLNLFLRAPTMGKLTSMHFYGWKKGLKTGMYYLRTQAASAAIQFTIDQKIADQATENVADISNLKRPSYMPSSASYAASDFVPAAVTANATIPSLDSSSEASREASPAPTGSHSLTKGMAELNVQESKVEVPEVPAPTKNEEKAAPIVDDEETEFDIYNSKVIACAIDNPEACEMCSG

[5] = SC-HIS-LEU-TRP plus 3-aminotriazole

B1: RNR1: GBD (Gal4 DNA binding domain) fusion of the RNR1 ORF in pGBD-C2, two-hybrid construct (protein)
chain: MYVYKRDGRKEPVQFDKITARISRLCYGLDPKHIDAVKVTQRIISGVYEGVTTIELDNLAAETCAYMTTVHPDYATLAARIAISNLHKQTTKQFSKVVEDLYRYVNAATGKPAPMISDDVYNIVMENKDKLNSAIVYDRDFQYSYFGFKTLERSYLLRINGQVAERPQHLIMRVALGIHGRDIEAALETYNLMSLKYFTHASPTLFNAGTPKPQMSSCFLVAMKEDSIEGIYDTLKECALISKTAGGIGLHIHNIRSTGSYIAGTNGTSNGLIPMIRVFNNTARYVDQGGNKRPGAFALYLEPWHADIFDFIDIRKNHGKEEIRARDLFPALWIPDLFMKRVEENGTWTLFSPTSAPGLSDCYGDEFEALYTRYEKEGRGKTIKAQKLWYSILEAQTETGTPFVVYKDACNRKSNQKNLGVIKSSNLCCEIVEYSAPDETAVCNLASVALPAFIETSEDGKTSTYNFKKLHEIAKVVTRNLNRVIDRNYYPVEEARKSNMRHRPIALGVQGLADTFMLLRLPFDSEEARLLNIQIFETIYHASMEASCELAQKDGPYETFQGSPASQGILQFDMWDQKPYGMWDWDTLRKDIMKHGVRNSLTMAPMPTASTSQILGYNECFEPVTSNMYSRRVLSGEFQVVNPYLLRDLVDLGIWDEGMKQYLITQNGSIQGLPNVPQELKDLYKTVWEISQKTIINMAADRSVYIDQSHSLNLFLRAPTMGKLTSMHFYGWKKGLKTGMYYLRTQAASAAIQFTIDQKIADQATENVADISNLKRPSYMPSSASYAASDFVPAAVTANATIPSLDSSSEASREASPAPTGSHSLTKGMAELNVQESKVEVPEVPAPTKNEEKAAPIVDDEETEFDIYNSKVIACAIDNPEACEMCSG
- LacZ activity [1]: 2.9 ± 0.5 Miller Units
- ADE2 reporter ([1]; SC-ADE-LEU-TRP): +/−
- HIS3 reporter [1, 5]: +
- LacZ activity [2]: 0.8 ± 0.2 Miller Units
- LacZ activity [3]: 85 ± 1 Miller Units
- ADE2 reporter ([3]; SC-ADE-LEU-TRP): +
- HIS3 reporter [3, 5]: +

Molecule: Ac-GAFTFNEDF [N-acetylated nonapeptide corresponding to the last 9 amino acids of Rnr2p]
- IC50, in vitro yeast RNR assay [4]: 44 µM

Molecule: Ac-KEINFDDDF [N-acetylated nonapeptide corresponding to the last 9 amino acids of Rnr4p]
- IC50, in vitro yeast RNR assay [4]: 30 µM

Molecule: Ac-QGKVEEMDF [N-acetylated nonapeptide corresponding to the last 9 amino acids of Sml1p]
- IC50, in vitro yeast RNR assay [4]: ~300 µM
